# Measurements taken from patent US20140093514A1 (UNIVERSITY OF ZURICH, published 2014).
# Where a chain is given by its changes, count along the chain named. Like-named read-outs stand apart in the source and are kept apart here.
# T1: recombinant MAGEA4 (UniProt P43358 1-317, limits assumed)
# T1 construct: also called CT1.4
# T1 sequence (looked up): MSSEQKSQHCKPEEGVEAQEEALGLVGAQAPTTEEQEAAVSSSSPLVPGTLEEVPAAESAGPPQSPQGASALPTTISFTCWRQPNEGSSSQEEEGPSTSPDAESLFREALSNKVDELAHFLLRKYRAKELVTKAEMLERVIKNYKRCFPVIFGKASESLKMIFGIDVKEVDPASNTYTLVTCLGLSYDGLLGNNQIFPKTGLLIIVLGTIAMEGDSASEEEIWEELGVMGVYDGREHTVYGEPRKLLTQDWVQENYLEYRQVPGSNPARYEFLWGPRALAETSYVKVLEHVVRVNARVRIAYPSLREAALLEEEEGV
# T2: MAGEA3 peptide No 10
# T2 construct: member of the group m18; also called 20mer peptide, amino acids 91-110 of MAGEA3
# T2 peptide: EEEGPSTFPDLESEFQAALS
# T3: MAGEA3 peptide No 22
# T3 construct: member of the group m18; also called 20mer peptide, amino acids 211-230 of MAGEA3
# T3 peptide: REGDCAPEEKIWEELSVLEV
# T4: recombinant MAGEA1 (UniProt P43355 1-309, limits assumed)
# T4 construct: also called CT1.1
# T4 sequence (looked up): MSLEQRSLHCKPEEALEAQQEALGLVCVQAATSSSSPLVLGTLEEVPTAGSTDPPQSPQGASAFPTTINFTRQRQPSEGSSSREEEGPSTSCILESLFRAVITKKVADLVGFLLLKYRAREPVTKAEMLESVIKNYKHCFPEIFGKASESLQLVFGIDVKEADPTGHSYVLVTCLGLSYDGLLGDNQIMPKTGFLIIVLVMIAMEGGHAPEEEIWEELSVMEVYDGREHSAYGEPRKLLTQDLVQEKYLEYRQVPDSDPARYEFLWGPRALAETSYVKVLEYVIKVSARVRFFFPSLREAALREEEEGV
# T5: MAGEA3 peptide No 5
# T5 construct: member of the group m18; also called 20mer peptide, amino acids 41-60 of MAGEA3
# T5 peptide: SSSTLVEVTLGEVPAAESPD
# B1: 31H10 (antibody, V domains shown)
# VH: QVQLVESGGGVVQPGGSLRLSCAASDFTFSDHGMHWVRQAPGKGLQWVSFISHHGTNKYYIDSVKGRFIISRDNSKNTLYLQMNSLRTEDTAVYYCATVIGYFFGYGFDVWGQGTTVIVSS
# VL: EIVMTQSPATLSVSPGEEINLACRASHSISGNLAWYQQKPGQGPRLLIYSASTRATGISARFSGSGSGTEFTLTISSLESEDFAVYFCQQYNNWPLTFGGGTKVEIK
# B2: 54B4 (antibody, V domains shown)
# VH: EVQLVESGGGLVPPGGSLRLSCAASGFTFTTYGLTWVRQAPGKGLEWISYITSSGTIIHYADSVKGRFTISRDNAKNSLYLQMNSLRAEDTAVYYCARGRRGTVVRGVMLDQWGQGTLVTVSS
# VL: DIQMTQSPSTLSASIGDRVTITCRASQSISRWLAWYQQKPGQAPKLLIYEASSLESGVPSRFSGSGSGTEFTLTISSLQPDDFAIYYCQQYSSYSLTFGGGTKVEIK
# B3: 43B10 (antibody, V domains shown)
# VH: B2 VH with T35N, Q39L
# VL: B2 VL with T22A, I85T, T97A
# B4: 94G11 (antibody, V domains shown)
# VH: QVLLQESGPGLVKPSQILSLTCTVSGGSNRSVSYYWSWIRQPAGQGLEWIGRIYPSGSTHYNPSLKSRVTISVDTSKNQFSLKLSSLTAADTAMYFCAWGGYDSLGGRRLRHFDYWGQGALVTVSS
# VL: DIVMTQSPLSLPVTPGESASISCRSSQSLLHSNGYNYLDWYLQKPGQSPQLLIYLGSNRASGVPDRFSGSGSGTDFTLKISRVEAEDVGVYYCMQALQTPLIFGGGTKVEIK
# B5: 9A5 (antibody, V domains shown)
# VH: EVQLVASGGVMVKPGGSLRLSCAASGFSFKNAWMTWVRQAPGMGLEWVGRITSKTDGETTDYAAPVKGRFTISRDDSKNILYLQMNSLKTEDTAVYYCATRTTVCYVCWGQGTLVTVSS
# VL: DIVLTQSPDSLAVSQGERATINCKSSQSLLYSSNNKNYLAWFQQKPGQPPKLLIYWASTRESGVPDRFSGSGSGTDFTLTISSLQAEDVAVYYCQQYYTIGWTFGPGTKVEIK
# B6: 26C9 (antibody, V domains shown)
# VH: QVQLVQSGAAVKKPGSSVKVSCTASGGTFGTSGITWVRQAPGQGLEWVGRVTPILGITRYAQRFQGRVTITADTSTSTAYMELSRLRSDDTALYYCARAPEMTINSDWGQGTLVTVSS
# VL: QSALTQPASVSGSPGQSITISCTGTRSDVGGHNYVSWYQQDPDKAPKLIIYEVSKRPSGVSNRFSGSKSGNTASLTISGLQAEDEADYYCSSYTGTTILEVFGTGTTVTVL
# B7: 2G4 (antibody, V domains shown)
# VH: B6 VH with V51I, A61G, T74K
# VL: B6 VL with Q40H, V60I, T96S
# B8: 20C10 (antibody, V domains shown)
# VH: QLQLQESGPGLVKPSETLSLTCTVSGDSISASTDSWGWIRQSPGKGLEWIGVTSYSGRPYYNPSLKRRVTISVDTSKNHFSLKLTSVTAADRALYYCARRPSLIWAFDIWGQGTMVTVSS
# VL: QSALTQPASVSGSPEQSITISCTGTSSAVGNYNLVSWYQHHPGKAPLLIIYDVNERPSGVSHRFSGSRSGNTASLTISGLLAEDEADYFCCSYGGTSSLHYVFGTGTRVTVL
# B9: 4D6 (antibody, V domains shown)
# VH: QVQLVESGGGVVQPGRSLRLSCAASGFSFSDYAMHWVRQAPGKGLEWVAVISYDGTKKYYADSVEGRLTISRDNSQNTLSLQMSGLRVEDKGVYYCARDGCDSARCSYGMDVWGQGTTVTVSS
# VL: EIVMTQSPSSLSASVGDRVTITCRASQDIRNDLGWYQQKPGKAPKLLIYGASTLQSGVPSRFSGSGSGTDFTLTISSLQPEDFATYYCLQDYSYRWTFGQGTKVEIK
# Columns and labels:
# recombinant MAGEA4 = molecular target: T1, recombinant MAGEA4; assay: Western blot; recombinant MAGEA4 in lane B, human antibody as probe
# Procedure: Membranes were incubated with human antibodies 21B4, 54B4, 94G11, 9A5, 31H10, 43B10, 2G4 or 20C10. Binding of human antibodies to proteins on the membrane was evaluated. The results are depicted in FIG. 3A).
# [1] = molecular target: T6, recombinant MAGEA3 protein (human, UniProt P43357 1-314); assay: ELISA, recombinant MAGEA3 coated to plastic, serial dilutions of antibody, OD 450 nm
# T6 construct: In Experiment 4C MAGEA3 was also expressed in transiently transfected HEK293T cells (fixed and permeabilized); also called His-tagged MAGEA3; CT1.3
# Procedure: FIG. 4 EC50 determination of recombinant human monoclonal antibodies to MAGEA3. MAGEA3-ELISA was carried out using recombinant MAGEA3 coated to plastic and serial dilutions of the human monoclonal antibodies 21B4, 54B4, 94G11, 9A5, 31H10, 43B10, 2G4, 20C10, 26C9 and 4D6 (A-J). EC50 values are indicated in each figure.
# (§1) The EC₅₀, the concentration at which half-maximal binding of the antibody to its antigen is observed was determined in MAGEA3 ELISA using serial dilutions of the human monoclonal antibodies 21B4, 54B4, 94G11, 9A5, 31H10, 43B10, 2G4, 20C10, 26C9 and 4D6. EC50 values were determined mathematically by derivation of the best-fit line using GraphPad software.
# MAGEA3 peptide No 10 = molecular target: T2, MAGEA3 peptide No 10; assay: ELISA on plates coated with overlapping 20mer MAGEA3 peptides; antibody at 1 µg/ml; HRP goat anti-human IgG Fc-gamma
# Procedure: (§2) 20mer peptides spanning the entire MAGEA3 protein with 10 aa overlaps shared by each adjacent peptide (Peptides&Elephants, Nuthetal, Germany) were used to coat Maxisorp ELISA plates (Nunc, Rochester, N.Y.). As control a 20mer peptide representing amino acids 40-21 from the NY-ESO-1 protein was used (rev). The numbering of amino acids of MAGEA3 is based on SEQ ID No.: 101.
# (§3) Human recombinant antibody was used at a concentration of 1 μg/ml with the exception of antibody 9A5 which was used at […]. Bound human antibody was detected using horseradish peroxidase-conjugated goat anti-human IgG Fc-gamma specific antibodies (Jackson ImmunoResearch, Europe Ltd., Cambridgeshire, UK).
# MAGEA6 = molecular target: T7, MAGEA6 (UniProt P43360 1-314, limits assumed); assay: flow cytometry on fixed, permeabilized HEK293T cells transiently transfected with MAGEA6; PE-labeled anti-human antibody
# T7 construct: whole, on cells; Intracellular antigen: the transfected cells were fixed and permeabilized before staining; also called CT1.6
# Procedure: HEK293T cells transiently transfected with MAGEA3 or MAGE A6 were fixed and permeabilized and incubated with human-derived antibodies. Binding of human-derived antibodies to the cells was detected by flow cytometry using PE-labeled anti-human antibodies. […] Filled histograms show binding of 21B4, 31H10, 94G11 and 54B4 to transiently transfected HEK 293 cells. Only a proportion of the cells was transfected resulting in a population expressing the transgene and in a population not expressing the transgene. […] The results are depicted in FIG. 3C).
# [2] = molecular target: T6, recombinant MAGEA3 protein; assay: ELISA, recombinant MAGEA3 coated to plastic, serial dilutions of antibody, OD 450 nm; remark: listed apart in the source
# Procedure: His-tagged MAGEA3 expressed in bacteria was column-purified and used to coat 96 well microplates (Costar, USA). Plates were washed with PBS-T and blocked 1 h at room temperature with PBS containing 2% BSA (Sigma, Buchs, Switzerland). Patient sera, B cell conditioned medium, or recombinant antibody preparations were incubated for 2 h at room temperature. Binding of human IgG to MAGEA3 was determined using a horseradish peroxidase conjugated goat anti human Fc-gamma-specific antibody (Jackson ImmunoResearch, Europe Ltd., Cambridgeshire, UK) followed by measurement of the HRP activity using a TMB substrate solution (TMB, Sigma, Buchs, Switzerland).
# as §1
# MAGEA3 peptide No 22 = molecular target: T3, MAGEA3 peptide No 22; assay: ELISA on plates coated with overlapping 20mer MAGEA3 peptides; antibody at 1 µg/ml; HRP goat anti-human IgG Fc-gamma
# Procedure: as §2, §3
# recombinant MAGEA1 = molecular target: T4, recombinant MAGEA1; assay: ELISA on coated recombinant MAGEA proteins, serial dilutions of antibody (concentrations not printed on the sheet)
# Procedure: (§4) Recombinantly expressed MAGEA3, MAGEA1, MAGEA4, MAGEA10 were coated on ELISA plates and binding of MAGEA3 antibodies 21B4, 94G11, 2G4, 9A5 and 54B4 to these proteins was tested. The results are depicted in FIG. 3B).
# recombinant MAGEA10 = molecular target: T8, recombinant MAGEA10 (UniProt P43363 1-369, limits assumed); assay: as above
# T8 construct: also called CT1.10
# Procedure: as §4
# MAGEA3 peptide No 5 = molecular target: T5, MAGEA3 peptide No 5; assay: ELISA on plates coated with overlapping 20mer MAGEA3 peptides; antibody 9A5 at '4 mg/ml' as printed in paragraph 376; HRP goat anti-human IgG Fc-gamma
# Procedure: as §2, §3
# T8 sequence (P43363 whole entry): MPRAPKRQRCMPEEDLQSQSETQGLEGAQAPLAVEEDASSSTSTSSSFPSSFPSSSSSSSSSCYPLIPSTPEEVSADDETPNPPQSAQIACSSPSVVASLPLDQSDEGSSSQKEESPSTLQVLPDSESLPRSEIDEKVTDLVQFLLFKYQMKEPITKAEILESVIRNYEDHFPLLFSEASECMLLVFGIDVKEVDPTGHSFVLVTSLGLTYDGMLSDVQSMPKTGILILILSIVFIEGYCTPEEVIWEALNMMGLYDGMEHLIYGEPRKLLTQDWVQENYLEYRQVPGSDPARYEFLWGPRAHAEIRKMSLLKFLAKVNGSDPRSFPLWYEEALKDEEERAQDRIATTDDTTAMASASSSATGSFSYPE
# T6 sequence (P43357 whole entry): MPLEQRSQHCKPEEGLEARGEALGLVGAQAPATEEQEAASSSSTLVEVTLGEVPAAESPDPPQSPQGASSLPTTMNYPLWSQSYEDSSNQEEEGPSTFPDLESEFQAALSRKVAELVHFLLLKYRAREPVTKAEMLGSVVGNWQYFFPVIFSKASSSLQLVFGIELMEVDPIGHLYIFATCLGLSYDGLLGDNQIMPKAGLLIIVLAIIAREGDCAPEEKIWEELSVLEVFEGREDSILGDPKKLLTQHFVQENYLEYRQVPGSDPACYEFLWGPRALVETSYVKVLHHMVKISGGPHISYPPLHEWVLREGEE
# T7 sequence (P43360 whole entry): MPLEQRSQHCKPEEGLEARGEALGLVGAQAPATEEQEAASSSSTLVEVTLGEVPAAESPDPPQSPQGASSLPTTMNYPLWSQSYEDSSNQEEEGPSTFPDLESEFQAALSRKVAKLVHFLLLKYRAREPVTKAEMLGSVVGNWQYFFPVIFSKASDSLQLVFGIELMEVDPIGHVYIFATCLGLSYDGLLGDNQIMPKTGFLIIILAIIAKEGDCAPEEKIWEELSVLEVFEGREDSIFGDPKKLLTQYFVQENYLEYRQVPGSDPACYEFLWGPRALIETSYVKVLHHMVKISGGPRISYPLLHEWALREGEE
binder,measurement,setting,value
B1,binding result,recombinant MAGEA4,no binding
same,EC50,[1],0.0192 nM
same,binding result,MAGEA3 peptide No 10,binds
same,binding result,MAGEA6,binds
B2,binding result,recombinant MAGEA4,no binding
same,EC50,[2],0.029 nM
same,binding result,MAGEA3 peptide No 22,binds
same,binding result,MAGEA6,binds
B3,EC50,[2],0.109 nM
same,binding result,MAGEA3 peptide No 22,binds
B4,binding result,recombinant MAGEA4,no binding
same,EC50,[2],0.129 nM
same,binding result,recombinant MAGEA1,no binding
same,binding result,recombinant MAGEA10,no binding
same,binding result,MAGEA6,binds
B5,binding result,recombinant MAGEA4,no binding
same,EC50,[1],0.259 nM
same,binding result,recombinant MAGEA1,no binding
same,binding result,recombinant MAGEA10,no binding
same,binding result,MAGEA3 peptide No 5,binds
B6,EC50,[1],0.523 nM
B7,binding result,recombinant MAGEA4,no binding
same,EC50,[1],7.79 nM
same,binding result,recombinant MAGEA1,no binding
same,binding result,recombinant MAGEA10,no binding
B8,EC50,[1],37.3 nM
B9,binding result,[2],binds
